Experimental data published in paper doi:10.1101/602425.

Target: GST-Rac1A, active (GTPγs-bound) (Dictyostelium) (UniProt P34144)
Assay: pull-down

- immunoblot quantification of binding (%): 1.9%
Substance: GFP-WASP (wild type Dictyostelium WASP) (natural protein)
